This note sets out measurements from US20240132624A1 (Ablynx, published 2024).

Assay [1] has as its target T1, mouse serum albumin (mouse, UniProt P07724 25-608).
T1 construct: also called MSA
The assay can be described thus: SPR pH 7.4.
Description: (§1) The affinity of the purified, multivalent ISVD constructs for human and mouse serum albumin (HSA and MSA, respectively) was determined on the ProteOn XPR36 (BioRad Laboratories, Inc.) instrument. […] The ISVD constructs were injected at 6 different concentrations (between 1 and 500 nM) and allowed to associate for 120 s at 45 μL/min and dissociate for 600s-3600s at 45 μL/min. Evaluation of the sensorgrams was based on the 1:1 Langmuir dissociation model simultaneously fitting on and off-rates.

The target of assay [2] is T2, human serum albumin (human, UniProt P02768 25-609).
T2 construct: also called HSA
Description: SPR pH 7.4.
Description: as §1

In assay [3] the target is T3, cyno FcRn/b2M (cyno, UniProt Q8SPV9 24-297; Q8SPW0 21-119, biotinylated).
T3 construct: bought recombinant biotinylated protein (Immunitrack ITF05 or ACRO FCM-C82W5); also called cFcRn; cFcRn/cb2M
T3 sequence (Q8SPV9 24-297 limits assumed, chain 1 of 2): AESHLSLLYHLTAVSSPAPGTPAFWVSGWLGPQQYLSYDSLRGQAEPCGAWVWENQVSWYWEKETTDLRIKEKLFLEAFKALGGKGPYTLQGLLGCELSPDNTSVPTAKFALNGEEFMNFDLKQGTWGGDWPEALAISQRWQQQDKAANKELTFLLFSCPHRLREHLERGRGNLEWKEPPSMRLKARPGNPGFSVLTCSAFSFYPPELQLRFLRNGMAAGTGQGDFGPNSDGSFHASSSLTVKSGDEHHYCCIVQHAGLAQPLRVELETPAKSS
T3 sequence (Q8SPW0 21-119 limits assumed, chain 2 of 2): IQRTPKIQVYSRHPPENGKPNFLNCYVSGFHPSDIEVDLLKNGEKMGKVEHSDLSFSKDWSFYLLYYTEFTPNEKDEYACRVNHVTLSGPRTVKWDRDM
The assay can be described thus: SPR pH 6.0.
Description: (§2) The affinity of the purified, multivalent ISVD constructs for human and cyno FcRn was determined on the MASS-2 (Sierra sensors, Gmbh) instrument, hFcRn/hb2M and cFcRn/cb2M was captured on a Biotin-tag Capture Chip or a High Capacity Amine Chip (pre-immobilized with neutravidin). The ISVD constructs were injected at 6 different concentrations (between 1 and 4000 nM) and allowed to associate for 120 s at 45 μL/min and dissociate for 600 s-3600 s at 45 μL/min. […] Evaluation of the sensorgrams was based on the 1:1 Langmuir dissociation model simultaneously fitting on and off-rates.

Assay [4] has as its target T4, human FcRn/b2M (human, UniProt P61769 21-119, biotinylated).
T4 construct: bought recombinant biotinylated protein (ACRO FCM-H82W4 or Immunitrack ITF01); also called hFcRn; hFcRn/hb2M
Description: SPR pH 6.0.
Description: as §2

Assay [5] addresses T3, cyno FcRn/b2M. The assay can be described thus: SPR pH 7.4.
Description: as §2
Assay [6] has as its target T4, human FcRn/b2M. The assay can be described thus: SPR pH 7.4.
Description: as §2
Assay [7] concerns the target T1, mouse serum albumin. The assay can be described thus: SPR pH 6.0.
Description: as §1
For assay [8], the target named is T2, human serum albumin. Description: SPR pH 6.0.
Description: as §1
For assay [9], the target named is T3, cyno FcRn/b2M. Description: SPR pH 6.0; pH 6.0; off-rate of periplasmic extract, cyno FcRn.
Description: (§3) All kinetic measurements have been performed on ProteOn XPR36 (BioRad Laboratories, Inc.), MASS-2 (Sierra sensors, Gmbh) or SPR-32 (Bruker Corporation). […] The phytip purified periplasmic extracts were diluted 1:10 in running buffer (CPA+150 mM NaCl+0.005% Tw20 at pH 5.5, pH 6.0 or pH 7.4) and injected over the ligand surfaces (association: 120 s at 45 μL/min; dissociation: 600s-3600 s at 45 μL/min). Experiments were carried out at 25° C.
In assay [10] the target is T4, human FcRn/b2M. Description: SPR pH 6.0; pH 6.0; off-rate of periplasmic extract, human FcRn.
Description: as §3
In assay [11] the target is T4, human FcRn/b2M. The assay can be described thus: SPR pH 6.0. This is another data set of the same source.
Assay [12] concerns the target T3, cyno FcRn/b2M. Description: SPR; pH 7.4 vs pH 6.0. (Surface plasmon resonance follows binding to a sensor surface in real time, without labels.)
The target in assay [13] is T4, human FcRn/b2M. Description: SPR; pH 7.4 vs pH 6.0.
The target in assay [14] is T3, cyno FcRn/b2M. Description: SPR pH 6.0. The source holds these as a separate data set.
Assay [15] deals with T4, human FcRn/b2M. Description: SPR pH 6.0. This is another data set of the same source.
Assay [16] deals with T3, cyno FcRn/b2M. Description: SPR pH 7.4. This is another data set of the same source.
Assay [17] deals with T4, human FcRn/b2M. The assay can be described thus: SPR pH 7.4. The source holds these as a separate data set.
In assay [18] the target is T3, cyno FcRn/b2M. The assay can be described thus: SPR pH 6.0. The source holds these as a separate data set.
Description: as §2
Assay [19] has as its target T4, human FcRn/b2M. Description: SPR pH 6.0. This is another data set of the same source.
Description: as §2
The target in assay [20] is T1, mouse serum albumin. Description: SPR pH 6.0. The source holds these as a separate data set.
Description: as §1
Assay [21] has as its target T2, human serum albumin. Description: SPR pH 6.0. The source holds these as a separate data set.
Description: as §1
Assay [22] concerns the target T1, mouse serum albumin. The assay can be described thus: SPR pH 7.4. This is another data set of the same source.
Description: as §1
The target in assay [23] is T2, human serum albumin. The assay can be described thus: SPR pH 7.4. This is another data set of the same source.
Description: as §1
Assay [24] deals with T3, cyno FcRn/b2M. Description: SPR pH 7.4. The source holds these as a separate data set.
Description: as §2
Assay [25] concerns the target T4, human FcRn/b2M. Description: SPR pH 7.4. The source holds these as a separate data set.
Description: as §2
For assay [26], the target named is T3, cyno FcRn/b2M. Description: SPR pH 6.0; pH 6.0; cyno FcRn.
Description: as §2
The target of assay [27] is T4, human FcRn/b2M. Description: SPR pH 6.0; pH 6.0; human FcRn.
Description: as §2

T1 sequence (P07724 25-608 limits assumed): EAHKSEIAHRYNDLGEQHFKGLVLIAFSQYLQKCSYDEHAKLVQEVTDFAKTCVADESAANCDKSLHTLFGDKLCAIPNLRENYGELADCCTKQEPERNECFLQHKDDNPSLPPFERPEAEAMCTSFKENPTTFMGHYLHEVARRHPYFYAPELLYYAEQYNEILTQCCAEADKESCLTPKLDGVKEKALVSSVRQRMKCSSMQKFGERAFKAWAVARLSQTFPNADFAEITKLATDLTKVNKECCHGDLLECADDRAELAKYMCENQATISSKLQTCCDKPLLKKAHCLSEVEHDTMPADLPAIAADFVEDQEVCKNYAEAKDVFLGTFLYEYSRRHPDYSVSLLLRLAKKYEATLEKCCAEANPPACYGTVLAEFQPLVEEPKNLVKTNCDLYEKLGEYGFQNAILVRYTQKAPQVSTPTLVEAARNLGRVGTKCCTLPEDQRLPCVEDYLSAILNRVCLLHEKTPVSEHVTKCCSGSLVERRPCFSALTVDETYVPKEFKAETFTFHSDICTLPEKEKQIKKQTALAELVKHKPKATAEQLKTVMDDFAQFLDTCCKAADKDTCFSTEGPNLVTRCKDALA
T4 sequence (chain, as listed by the source limits assumed, chain 1 of 2): as the sequence (Q8SPV9 24-297 limits assumed, chain 1 of 2) above, with D39N, Q44E, S99G, G189S, N190S, M217L, T269S counted along it
T4 sequence (P61769 21-119 limits assumed, chain 2 of 2): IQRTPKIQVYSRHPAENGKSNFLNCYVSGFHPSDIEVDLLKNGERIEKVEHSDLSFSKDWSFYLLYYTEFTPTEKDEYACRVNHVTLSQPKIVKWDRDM

B1: T026301259 (bispecific antibody, not shown: small tags and cut ends)
chain: EVQLVESGGGVVQPGGSLRLSCAASGFTFSSYAMYWVRQAPGKGLEWVSAISSGGGSTDYADSVKGRFTISRDNSKNTLYLQMNSLRPEDTALYYCAADTLYTSLTWYSYWGQGTLVTVSSGGGGSGGGSEVQLVESGGGVVQPGGSLRLSCAASGFTFRSFGMSWVRQAPGKGPEWVSSISGSGSDTLYADSVKGRFTISRDNSKNTLYLQMNSLRPEDTALYYCTIGGSLSRSSQGTLVTVSSA
notes: tetravalent ISVD construct; also called X-Y-FcRn-ALB23002
The term koff denotes the rate constant with which the complex falls apart. Low values mean a long-lived complex, high ones a short-lived complex. As a reminder, the Kd is the free concentration of one partner at which half of the binding sites on the other are occupied at equilibrium, for simple one-to-one binding. High values mean a looser complex, low ones a tighter complex. On to B1, for which the koff in the assay with mouse serum albumin [1] is 0.037 s⁻¹; with mouse serum albumin [7] it was 0.038 s⁻¹. Moreover, the equilibrium dissociation constant (Kd) in the assay with human serum albumin [2] is 0.00732 µM; with cyno FcRn/b2M [3], 0.015 µM; with human FcRn/b2M [4], 0.025 µM; in the assay with cyno FcRn/b2M [5] it was 0.48 µM; with human FcRn/b2M [6] it was 0.83 µM; in the assay with human serum albumin [8], 0.0098 µM.

B2: T0263018B11 T96E (VHH, name in Kabat numbering)
VHH: EVQLVESGGGVVQPGGSLRLSCAASGFTFSSYAMYWVRQAPGKGLEWVSAISSGGGSTDYADSVKGRFTISRDNSKNTLYLQMNSLRPEDTALYYCAADELYTSLTWYSYWGQGTLVTVSS
notes: FLAG3-His6 tagged
As for B2, the koff with cyno FcRn/b2M [9] came to 0.0093 s⁻¹; with human FcRn/b2M [10], 0.012 s⁻¹.

B3: T026301266 (other)
VHH 1: EVQLVESGGGVVQPGGSLRLSCAASGFTFSSYAMYWVRQAPGKGLEWVSAISSGGGSTDYADSVKGRFTISRDNSKNTLYLQMNSLRPEDTALYYCAADTLYTSLTWYSYWGQGTLVTVSS
VHH 2: EVQLVESGGGVVQPGGSLRLSCAASGFTFRSFGMSWVRQAPGKGPEWVSSISGSGSDTLYADSVKGRFTISRDNSKNTLYLQMNSLRPEDTALYYCTIGGSLSRSSQGTLVTVSSA
notes: tetravalent ISVD construct; also called X-FcRn-Y-ALB23002
Regarding B3, the koff was 0.048 s⁻¹ in the assay with mouse serum albumin [1] and 0.053 s⁻¹ with mouse serum albumin [7]. For the same molecule, the Kd with human serum albumin [2] came to 0.0086 µM; with cyno FcRn/b2M [3], 0.026 µM; with human FcRn/b2M [4], 0.041 µM; with cyno FcRn/b2M [5], 0.88 µM; with human FcRn/b2M [6], 1.6 µM; in the assay with human serum albumin [8], 0.012 µM.

B4: T026301111 (VHH, name in Kabat numbering)
VHH: EVQLVESGGGVVQPGGSLRLSCAASGFTFSEYAMYWVRQAPGKGLEWVSAISQGGGSTDYADSVKGRFTISRDNSKNTLYLQMNSLRPEDTALYYCAADTLYTSLTWYSYWGQGTLVTVSS
notes: tagless
Turning to B4, the koff with human FcRn/b2M [11] is 0.0032 s⁻¹. For the same molecule, the “KD ratio pH 7.4/6.0” value was 104 with cyno FcRn/b2M [12] and 70 in the assay with human FcRn/b2M [13]. The Kd with cyno FcRn/b2M [14] turned out to be 0.048 µM; with human FcRn/b2M [15], 0.077 µM; with cyno FcRn/b2M [16] it was 5 µM; with human FcRn/b2M [17] it was 5.4 µM.

B5: T026301079 (VHH, name in Kabat numbering)
VHH: EVQLVESGGGVVQPGGSLRLSCAASGFTFSSYAMYWVRQAPGKGLEWVSAISQGGGSTDYADSVKGRFTISRDNSKNTLYLQMNSLRPEDTALYYCAADTLYTSLTSYSYWGQGTLVTVSS
notes: tagless
As for B5, the koff in the assay with human FcRn/b2M [11] turned out to be 0.0065 s⁻¹. Moreover, in the assay with cyno FcRn/b2M [12], the “KD ratio pH 7.4/6.0” value is 78. Also, the figures for the Kd in the assay with cyno FcRn/b2M [14], with human FcRn/b2M [15] and in the assay with cyno FcRn/b2M [16] were 0.076 µM, 0.12 µM and 5.9 µM, respectively.

B6: T026301064 (VHH, name in Kabat numbering)
VHH: EVQLVESGGGVVQPGGSLRLSCAASGFTFSSYDMYWVRQAPGKGLEWVSAISQGGGSTDYADSVKGRFTISRDNSKNTLYLQMNSLRPEDTALYYCAADTLYTSLTWYSYWGQGTLVTVSS
notes: tagless
In the assay with human FcRn/b2M [11], B6 showed a koff of 0.00046 s⁻¹. Further, the figures for the “KD ratio pH 7.4/6.0” value in the assay with cyno FcRn/b2M [12] and in the assay with human FcRn/b2M [13] were 632 and 394, respectively. In addition, the dissociation constant Kd with cyno FcRn/b2M [14] worked out at 0.0038 µM; in the assay with human FcRn/b2M [15], 0.0094 µM; with cyno FcRn/b2M [16], 2.4 µM; with human FcRn/b2M [17], 3.7 µM.

B7: T026301170 (bispecific antibody)
chain: DVQLVESGGGVVQPGGSLRLSCAASGFTFSSYAMYWVRQAPGKGLEWVSAISSGGGSTDYADSVKGRFTISRDNSKNTLYLQMNSLRPEDTALYYCAADTLYTSLTWYSYWGQGTLVTVSSGGGGSGGGGSGGGGSGGGGSGGGGSGGGGSGGGGSEVQLVESGGGVVQPGGSLRLSCAASGFTFRSFGMSWVRQAPGKGPEWVSSISGSGSDTLYADSVKGRFTISRDNSKNTLYLQMNSLRPEDTALYYCTIGGSLSRSSQGTLVTVSSA
notes: bispecific ISVD construct; also called T0263018B11(E1D)-35GS-ALB23002-A
Regarding B7, the Kd in the assay with cyno FcRn/b2M [18] worked out at 0.0079 µM; in the assay with human FcRn/b2M [19], 0.012 µM; with mouse serum albumin [20], 0.067 µM; with human serum albumin [21], 0.0061 µM; with mouse serum albumin [22], 0.085 µM; in the assay with human serum albumin [23] it was 0.013 µM. For the same molecule, the results for the Kd in the assay with cyno FcRn/b2M [24] and with human FcRn/b2M [25] were 0.29 µM and 0.45 µM, respectively.

B8: T026301197 (bispecific antibody, name in Kabat numbering)
chain: DVQLVESGGGVVQPGGSLRLSCAASGFTFSSYAMYWVRQAPGKGLEWVSAISQGGGSTDYADSVKGRFTISRDNSKNTLYLQMNSLRPEDTALYYCAADTLYTSLTWYSYWGQGTLVTVSSGGGGSGGGGSGGGGSGGGGSGGGGSGGGGSGGGGSEVQLVESGGGVVQPGGSLRLSCAASGFTFRSFGMSWVRQAPGKGPEWVSSISGSGSDTLYADSVKGRFTISRDNSKNTLYLQMNSLRPEDTALYYCTIGGSLSRSSQGTLVTVSSA
notes: bispecific ISVD construct; also called T0263018B11(E1D, S52aQ)-35GS-ALB23002-A
Take B8: the equilibrium dissociation constant (Kd) came to 0.041 µM in the assay with cyno FcRn/b2M [18]; 0.071 µM with human FcRn/b2M [19]; 0.057 µM with mouse serum albumin [20]; 0.0051 µM with human serum albumin [21]; 0.069 µM in the assay with mouse serum albumin [22]; 0.011 µM with human serum albumin [23]. For the same molecule, the dissociation constant Kd with cyno FcRn/b2M [24] amounted to 2.4 µM; with human FcRn/b2M [25], 2.6 µM.

B9: T026301195 (bispecific antibody, name in Kabat numbering)
chain: DVQLVESGGGVVQPGGSLRLSCAASGFTFSEYDMYWVRQAPGKGLEWVSAISSGGGSTDYADSVKGRFTISRDNSKNTLYLQMNSLRPEDTALYYCAADTLYTSLTSYSYWGQGTLVTVSSGGGGSGGGGSGGGGSGGGGSGGGGSGGGGSGGGGSEVQLVESGGGVVQPGGSLRLSCAASGFTFRSFGMSWVRQAPGKGPEWVSSISGSGSDTLYADSVKGRFTISRDNSKNTLYLQMNSLRPEDTALYYCTIGGSLSRSSQGTLVTVSSA
notes: bispecific ISVD construct; also called T0263018B11(E1D, S31E, A33D, W100cS)-35GS-ALB23002-A
With B9, the Kd with cyno FcRn/b2M [26] came to 0.67 µM; in the assay with human FcRn/b2M [27], 0.68 µM; with mouse serum albumin [20], 0.077 µM; with human serum albumin [21], 0.0061 µM; with mouse serum albumin [22] it was 0.12 µM; with human serum albumin [23], 0.013 µM.

B10: T026301257 (bispecific antibody, not shown: small tags and cut ends)
chain: EVQLVESGGGVVQPGGSLRLSCAASGFTFSSYAMYWVRQAPGKGLEWVSAISSGGGSTDYADSVKGRFTISRDNSKNTLYLQMNSLRPEDTALYYCAADTLYTSLTWYSYWGQGTLVTVSSGGGGSGGGGSGGGGSGGGGSGGGGSGGGGSGGGGSEVQLVESGGGVVQPGGSLRLSCAASGFTFRSFGMSWVRQAPGKGPEWVSSISGSGSDTLYADSVKGRFTISRDNSKNTLYLQMNSLRPEDTALYYCTIGGSLSRSSQGTLVTVSSA
notes: tetravalent ISVD construct; also called X-Y-FcRn-35GS-ALB23002
Turning to B10, the off-rate (koff) with mouse serum albumin [1] is 0.052 s⁻¹; with mouse serum albumin [7], 0.056 s⁻¹. Besides, the Kd amounted to 0.011 µM with human serum albumin [2]; 0.02 µM in the assay with cyno FcRn/b2M [3]; 0.034 µM with human FcRn/b2M [4]; 0.71 µM with cyno FcRn/b2M [5]; 1.2 µM with human FcRn/b2M [6]; 0.014 µM in the assay with human serum albumin [8].
